From patent US7198903B2, “Binding domains between presenilins and their substrates as targets for drug screening” (Vlaams Interuniversitair Instituut voor Biotechnologie VZW, priority 2001, dated 2007)

Target: T1, γ-secretase cleavage of APP-C99 (CHAPS extracts of HeLa cell membranes) (Homo sapiens, UniProt P49768)
T1 construct: CHAPS extracts of HeLa cell membranes were incubated with the APP-C99flag-tagged substrate; endogenous in cells; host or cells: HeLa cell membranes (CHAPS extract)
Assay: cell-free assay of in vitro production of amyloid peptides (Aβ) from APP-C99flag-tagged substrate, SDS-PAGE/western blotting
Assay type: biochemical
Details: CHAPS extracts of HeLa cell membranes incubated with APP-C99flag-tagged substrate plus peptide; DMSO control; western blot with antibody recognizing Aβ (FIG. 6)
Source text: FIG. 6: Peptides that mimic the binding domains in PS1 or APP inhibit the in vitro production of amyloid peptides (Aβ). The PS1-APP binding is mediated by the C-terminus of PS1 (and the first transmembrane domain of PS1) and part of the APP transmembrane region downstream of the γ-secretase cleavage site (and bearing the FAD-associated mutations affecting the γ-secretase cleavage). Peptides mimicking these domains were synthesized as such or with a conserved transmembrane region (TMR) or palmityol group (palm) attached to it. The amino acid sequence of the transmembrane region is NH2-[…]-COOH (SEQ ID NO:20) and the origin of the TMR is fully described in PCT International Publication WO 02/00882. CHAPS extracts of HeLa cell membranes were incubated with the APP-C99flag-tagged substrate in the presence of DMSO (control) or the different peptides at the concentrations indicated (peptide). γ-secretase inhibitor (10 μM) was included as a positive control for Aβ inhibition. After the reaction, samples were analyzed by SDS-PAGE followed by western blotting using an antibody recognizing Aβ. […]
Fixed amounts of recombinant APP-C99 are mixed with cleared cell extracts (for example extracted with Triton X100, CHAPS, CHAPSO or Nonidet p40) and incubated overnight at 37° C. or 4° C. De novo formed Aβ is monitored by SDS/PAGE combined with western blotting. […]

T1 sequence (Q96BI3 whole entry, other chains not shown): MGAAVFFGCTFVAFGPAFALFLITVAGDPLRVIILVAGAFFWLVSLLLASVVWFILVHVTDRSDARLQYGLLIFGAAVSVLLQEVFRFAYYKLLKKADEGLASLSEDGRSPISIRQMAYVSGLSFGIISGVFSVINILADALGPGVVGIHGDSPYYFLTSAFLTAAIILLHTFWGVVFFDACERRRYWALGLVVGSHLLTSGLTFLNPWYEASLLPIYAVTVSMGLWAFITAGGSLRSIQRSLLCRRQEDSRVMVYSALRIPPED
T1 sequence (Q92542 34-709, other chains not shown, further chain): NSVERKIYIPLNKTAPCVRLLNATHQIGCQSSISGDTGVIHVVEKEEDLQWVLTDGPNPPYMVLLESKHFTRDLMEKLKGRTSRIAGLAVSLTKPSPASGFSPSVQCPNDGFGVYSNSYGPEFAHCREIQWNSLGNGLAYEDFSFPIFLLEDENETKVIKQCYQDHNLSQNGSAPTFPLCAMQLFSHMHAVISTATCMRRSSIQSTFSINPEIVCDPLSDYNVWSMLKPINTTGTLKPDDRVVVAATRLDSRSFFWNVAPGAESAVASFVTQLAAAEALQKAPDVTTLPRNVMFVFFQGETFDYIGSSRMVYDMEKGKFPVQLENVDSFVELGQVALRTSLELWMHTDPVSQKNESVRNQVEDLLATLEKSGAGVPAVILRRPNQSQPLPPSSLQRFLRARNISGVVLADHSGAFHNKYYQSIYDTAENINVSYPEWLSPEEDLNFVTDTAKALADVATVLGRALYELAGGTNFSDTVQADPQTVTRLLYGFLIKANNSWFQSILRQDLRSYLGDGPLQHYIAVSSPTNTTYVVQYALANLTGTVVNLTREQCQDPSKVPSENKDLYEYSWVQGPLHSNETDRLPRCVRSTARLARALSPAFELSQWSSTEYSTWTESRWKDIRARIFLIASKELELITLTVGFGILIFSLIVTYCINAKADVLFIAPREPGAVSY
T1 sequence (Q9NZ42 whole entry, other chains not shown, further chain): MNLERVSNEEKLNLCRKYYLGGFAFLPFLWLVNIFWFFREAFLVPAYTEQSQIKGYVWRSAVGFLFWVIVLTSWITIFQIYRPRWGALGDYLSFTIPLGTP

| Substance | inhibition of in vitro Aβ production |
| --- | --- |
| NH2-ATVIVITLVMLK KKQ-TMR-COOH [SEQ ID NO:12] | highest inhibition |
| NH2-VVIATVIVITLVMLKKKQ-TMR-COOH [SEQ ID NO:7] | highest inhibition |
